Here are results for 4 molecules from patent US8158585B2, “Cross-β structure comprising amyloid-binding proteins and methods for detection of the cross-β structure, for modulating cross-β structures fiber formation and modulating cross-β structure-mediated toxicity” (CrossBeta Biosciences B.V., priority 2002, dated 2012).

One assay has as its target T1, tPA (Homo sapiens, UniProt P00750).
T1 construct: purchased Boehringer-Ingelheim (Germany)
Kind of assay: ELISA: binding of tPA to glycated albumin and Hb. The conditions noted are these: g6p-glycated protein immobilized. Here is the method:
Binding of tPA to albumin-g6p (four-week and 23-week incubations), albumin-glyceraldehyde, control albumin, human Hb-g6p (ten-week incubation), Hb control, or to Aβ (1-40) was tested using an enzyme-linked immunosorbent assay (ELISA) set-up. Albumin-g6p and control albumin (2.5 μg ml^−1 in coat buffer, 50 mM Na2CO3/NaHCO3 pH 9.6, 0.02% m/v NaN3, 50 μl/well) were immobilized for one hour at room temperature in 96-well protein Immobilizer plates (Exiqon, Vedbaek, Denmark). Aβ (1-40) (10 μg ml^−1 in coat buffer) was immobilized for 75 minutes at room temperature in a 96-well peptide Immobilizer plate (Exiqon, Vedbaek, Denmark). Control wells were incubated with coat buffer only. After a wash step with 200 μl of PBS/0.1% v/v Tween 20, plates were blocked with 300 μl of PBS/1% v/v Tween 20, for two hours at room temperature while shaking. All subsequent incubations were performed in PBS/0.1% v/v Tween 20 for one hour at room temperature while shaking, with volumes of 50 μl per well. After each incubation, wells were washed five times with 200 μl of PBS/0.1% v/v Tween 20. Increasing amounts of f.l. tPA or K2-P tPA was added in triplicate to coated wells and to control wells. […] Absorbance was read at 490 nm on a Vmax kinetic microplate reader (Molecular Devices, Sunnyvale, Calif., USA).

The target in the next assay is T2, albumin-g6p (Bos taurus, UniProt P02769).
T2 construct: Bovine serum albumin (BSA) fraction V pH 7.0; host or cells: bovine serum, fraction V
Kind of assay: ELISA: binding of tPA-F-GST and RPTPμ-GST to glycated albumin. Also on record: species or system bovine. The conditions noted are these: detection with anti-GST 2F3. As for the experimental part:
(§1) Binding of tPA-F-GST and RPTPμ-GST to fibrous amyloids human Aβ (1-40) and albumin-[…] was assayed with an ELISA. In brief, human Aβ (1-40), albumin-[…], or buffer only, were coated on a peptide I Immobilizer or a protein I Immobilizer, respectively. Wells were incubated with the purified GST-tagged constructs or control medium and binding was detected using primary anti-GST monoclonal antibody 2F3 and RAMPO. The wells were also incubated with […] of tPA in the presence of 10 mM of εACA. Binding of tPA is independent of the lysyl binding site located at the kringle 2 domain. Binding of tPA was measured using primary antibody 374B and RAMPO. Experiments were performed in triplicate and blank readings of non-coated wells were substracted.

In the next assay the target is T3, Aβ fibrils (Homo sapiens, UniProt P05067).
T3 construct: Peptide Aβ (1-40), containing amino acids as present in the described human Alzheimer peptide; purchased Pepscan, Inc. (The Netherlands) or peptide synthesis facility at the Netherlands Cancer Institute; host or cells: synthetic peptide
The assay can be described thus: Amyloid pull-down with insoluble Aβ fibers. It is filed as binding. The conditions noted are these: conditioned BHK medium. As for the experimental part: Conditioned medium of BHK cells expressing GST-tagged tPA F, F-EGF, EGF, K1, F-EGF-K1, FXII F, HGFa F, Fn F4, Fn F5, Fn F4-5 and GST was used for amyloid binding assays. At first, constructs were adjusted to approximately equal concentration using Western blots. Qualitative binding of the recombinant fragments were evaluated using a “pull-down” assay. To this end, the recombinantly made fragments were incubated with either Aβ or IAPP fibrils. Since these peptides form insoluble fibers, unbound proteins can be easily removed from the fibers following centrifugation. The pellets containing the bound fragments were subsequently washed several times. Bound fragments were solubilized in SDS-sample buffer and analyzed by PAGE, as were unbound proteins in the supernatant fraction and starting material. The gels were analyzed using immunoblotting analysis with the anti-GST antibody Z-5.

A further assay has as its target Aβ (1-40) (Homo sapiens, UniProt P05067). Kind of assay: ELISA: binding of tPA-F-GST and RPTPμ-GST to human Aβ (1-40). Also on record: Peptide Aβ (1-40), containing amino acids as present in the described human Alzheimer peptide; purchased Pepscan, Inc. (The Netherlands) or peptide synthesis facility at the Netherlands Cancer Institute; host or cells: synthetic peptide. The conditions noted are these: detection with anti-GST 2F3. Here is the method: as §1

In a further assay the target is T4, Aβ (Homo sapiens, UniProt P05067).
T4 construct: Peptide Aβ (1-40), containing amino acids as present in the described human Alzheimer peptide; purchased Pepscan, Inc. or peptide synthesis facility of the Netherlands Cancer Institute; host or cells: chemical synthesis
The assay can be described thus: Solid-phase binding ELISA of tPA, plasminogen and plasmin to coated Aβ. The conditions noted are these: 50 mM ε-aminocaproic acid. As for the experimental part:
FIG. 3 is a set of graphs depicting binding of tPA, plasminogen and plasmin to Aβ. Aβ was coated onto plastic 96-well plates. Increasing concentrations of either (A) tPA or (B) plasmin(ogen) were allowed to bind to the immobilized peptide. After extensive washing, tPA and plasmin(ogen) binding was assessed by enzyme-linked immunosorbent assays using anti-tPA and anti-plasminogen antibodies. Binding of (C) tPA and (D) plasmin to Aβ in the presence of 50 mM ε-aminocaproic acid (ε-ACA) was assessed as in A and B.
To test whether tPA, plasminogen and plasmin bind Aβ, solid-phase binding assays were performed. Aβ was coated onto plastic 96-well plates and binding of the peptide to either plasmin(ogen) or to tPA was assessed by overlaying the coated peptide with increasing concentrations of either tPA, plasminogen or plasmin. Binding was assessed using specific antibodies to either plasmin(ogen) or to tPA by performing ELISA. […] However, activated plasminogen (plasmin) does bind to Aβ and does so with a kD of 47 nM. […] To test this, use was made of the lysine analogue ε-aminocaproic acid (εACA) and binding of plasmin and tPA to Aβ was tested in its presence. […] In contrast, εACA has no effect on the tPA-Aβ interaction (FIG. 3, Panel C). Thus, it was concluded that plasmin binds to free lysines that were generated during the incubation period, presumably via its lysine-binding Kringle domain(s). In line with this, the kD of plasminogen Kringle domain binding to free lysines in fibrin is similar to the kD for plasmin binding to Aβ.

For assay [1], the system named is differentiated N1E-115 cells. Kind of assay: N1E-115 cell detachment (methylene blue staining). It is filed as cell-based, mouse. As to conditions: plasmin added with Aβ (25 μM), 48 hours. As for the experimental part: FIG. 4 is a set of graphs illustrating stimulation of tPA-mediated plasmin formation by Aβ and synergistic stimulation of cell detachment by plasminogen and Aβ. Panel A depicts that plasminogen (200 μg/ml) and tPA (200 pM) were incubated with Aβ (5 μM) or control buffer. Samples were taken from the reaction mixture at the indicated periods of time and plasmin activity was measured by conversion of the chromogenic plasmin substrate S-2251 at 405 nm. […] After 48 hours, the dead cells were washed away and the remaining adherent cells were stained with methylene blue. Plasmin cannot prevent Aβ-induced cell detachment. Panel C illustrates that N1E-115 cells were differentiated and received the indicated concentrations of plasminogen in the presence or absence of 10 μM Aβ. After 24 hours, cell detachment was assessed. […] Panel D is an immunoblot analysis of plasmin formation and laminin degradation. Differentiated N1E-115 cells were treated with or without Aβ (10 μM) in the absence or presence of added plasminogen. Addition of Aβ results in the formation of plasmin (bottom panel) and in degradation of laminin (top panel).
FIG. 5 depicts graphs illustrating that carboxypeptidase B inhibits Aβ-stimulated tPA-mediated plasmin formation and cell detachment. […] Samples were taken from the reaction mixture at the indicated periods of time and plasmin activity was measured by conversion of the chromogenic plasmin substrate S-2251 at 405 nm. The reaction was performed in the absence or the presence of 50 μg ml^−1 carboxypeptidase B (CpB) and in the absence or presence of 3.5 μM carboxypeptidase inhibitor (CPI). CpB greatly attenuates A-stimulated plasmin formation. […] After 24 hours, the cells were photographed. Panel C illustrates that, subsequently, the cells were washed once with PBS and the remaining cells were quantified as percentage-adhered cells by methylene blue staining. In Panel D, the cells were treated as in Panels B and C and medium and cell fractions were collected and analyzed by Western blot using an anti-plasmin(ogen) antibody. Aβ stimulates plasmin formation that is inhibited by CpB.
N1E-115 mouse neuroblastoma cells were routinely cultured in DMEM containing 5% FCS, supplemented with antibiotics. Cells were differentiated into post-mitotic neurons.^52 The cells were exposed to Aβ (50 μg ml^−1) for 24 hours in the presence or absence of 20 μg ml^−1 plasminogen in the presence or absence of 50 μg ml^−1 CpB. Cells were photographed, counted and lysed by the addition of 4× sample buffer (250 mM Tris pH 6.8, 8% SDS, 10% glycerol, 100 mM DTT, 0.01% w/v bromophenol blue) to the medium. The lysate, containing both adherent and floating (presumably dying and/or dead) cells, as well as the culture medium, were analyzed for the presence of plasminogen and plasmin, as well as for laminin, by Western blot analysis using specific antibodies against plasminogen (MoAb 3642, American Diagnostics), laminin (PoAb L9393, Sigma).

Where no end group is shown, it is not given here.

Aβ (1-40), sequence (P05067 672-711): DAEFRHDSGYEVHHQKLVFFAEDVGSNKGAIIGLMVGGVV
T2 sequence (P02769 25-607): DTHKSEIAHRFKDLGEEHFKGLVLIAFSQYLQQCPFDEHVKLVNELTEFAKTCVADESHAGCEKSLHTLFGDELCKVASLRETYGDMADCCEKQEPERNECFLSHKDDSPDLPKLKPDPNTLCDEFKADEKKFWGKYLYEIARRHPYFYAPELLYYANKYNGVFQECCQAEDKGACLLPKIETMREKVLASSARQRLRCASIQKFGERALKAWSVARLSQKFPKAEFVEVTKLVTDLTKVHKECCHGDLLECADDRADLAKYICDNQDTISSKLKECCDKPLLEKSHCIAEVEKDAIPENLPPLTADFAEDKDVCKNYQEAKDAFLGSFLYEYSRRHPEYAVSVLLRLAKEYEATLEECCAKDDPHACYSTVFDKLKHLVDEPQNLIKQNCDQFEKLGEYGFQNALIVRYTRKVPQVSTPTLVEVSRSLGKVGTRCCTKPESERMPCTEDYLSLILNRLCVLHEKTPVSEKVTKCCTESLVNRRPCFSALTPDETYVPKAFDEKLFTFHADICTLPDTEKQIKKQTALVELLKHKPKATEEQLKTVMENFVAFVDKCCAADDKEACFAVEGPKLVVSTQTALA
T4 sequence (P05067 672-711): as the sequence (P05067 672-711) above
T3 sequence (P05067 672-711): as above
T1 sequence (P00750 36-562): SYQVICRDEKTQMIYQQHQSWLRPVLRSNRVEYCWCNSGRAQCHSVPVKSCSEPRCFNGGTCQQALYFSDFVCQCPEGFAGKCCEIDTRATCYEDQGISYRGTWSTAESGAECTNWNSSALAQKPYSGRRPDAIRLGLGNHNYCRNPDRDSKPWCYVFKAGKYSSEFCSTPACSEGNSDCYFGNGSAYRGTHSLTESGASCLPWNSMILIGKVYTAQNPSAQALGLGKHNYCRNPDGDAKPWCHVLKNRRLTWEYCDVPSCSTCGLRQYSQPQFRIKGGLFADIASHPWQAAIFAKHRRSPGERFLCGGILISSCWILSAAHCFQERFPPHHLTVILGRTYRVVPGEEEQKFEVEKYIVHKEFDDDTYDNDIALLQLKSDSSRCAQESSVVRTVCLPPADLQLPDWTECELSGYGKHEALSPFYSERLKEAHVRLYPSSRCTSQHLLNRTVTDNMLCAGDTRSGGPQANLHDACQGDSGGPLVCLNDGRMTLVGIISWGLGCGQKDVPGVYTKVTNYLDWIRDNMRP

For “Hb-g6p: human hemoglobin incubated with glucose-6-phosphate”, the tPA binding result in the assay with tPA is “high-affinity tPA binding”.

With “tPA-F-GST: amino-terminal finger domain (F) of human tPA, residues Ser1-Ser50, with GST tag (SYQVICRDEKTQMIYQQHQSWLRPVLRSNRVEYCWCNSGRAQCHSVPVKS-{GST}; cysteine pairing not given here)”, in the assay with albumin-g6p, the “binding of GST-tagged construct to albumin-g6p” value is listed as “bound”. In addition, in the assay with Aβ fibrils, the “binding to Aβ fibers (pull-down, Western blot)” value was “Efficient binding”. Moreover, in the assay with Aβ (1-40), the “binding of GST-tagged construct to human Aβ (1-40)” value is listed as “bound”.

B1: RPTPμ-GST: extracellular domain of receptor-like protein tyrosine phosphatase μ with GST tag, control (protein, UniProt P28827 21-742, looked up)
extracellular domain: ETFSGGCLFDEPYSTCGYSQSEGDDFNWEQVNTLTKPTSDPWMPSGSFMLVNASGRPEGQRAHLLLPQLKENDTHCIDFHYFVSSKSNSPPGLLNVYVKVNNGPLGNPIWNISGDPTRTWNRAELAISTFWPNFYQVIFEVITSGHQGYLAIDEVKVLGHPCTRTPHFLRIQNVEVNAGQFATFQCSAIGRTVAGDRLWLQGIDVRDAPLKEIKVTSSRRFIASFNVVNTTKRDAGKYRCMIRTEGGVGISNYAELVVKEPPVPIAPPQLASVGATYLWIQLNANSINGDGPIVAREVEYCTASGSWNDRQPVDSTSYKIGHLDPDTEYEISVLLTRPGEGGTGSPGPALRTRTKCADPMRGPRKLEVVEVKSRQITIRWEPFGYNVTRCHSYNLTVHYCYQVGGQEQVREEVSWDTENSHPQHTITNLSPYTNVSVKLILMNPEGRKESQELIVQTDEDLPGAVPTESIQGSTFEEKIFLQWREPTQTYGVITLYEITYKAVSSFDPEIDLSNQSGRVSKLGNETHFLFFGLYPGTTYSFTIRASTAKGFGPPATNQFTTKISAPSMPAYELETPLNQTDNTVTVMLKPAHSRGAPVSVYQIVVEEERPRRTKKTTEILKCYPVPIHFQNASLLNSQYYFAAEFPADSLQAAQPFTIGDNKTYNGYWNTPLLPYKSYRIYFQAASRANGETKIDCVQVATKGAATPKPVPEPEKQTDHTVK
modifications: extracellular domain GST tag
notes: extracellular domain of receptor-like protein tyrosine phosphatase μ with GST tag, control
Take B1: in the assay with albumin-g6p, the “binding of GST-tagged construct to albumin-g6p” value is “no binding”. Further, the “binding of GST-tagged construct to human Aβ (1-40)” value with Aβ (1-40) is on record as “no binding”.

B2: plasmin: activated plasminogen (protein)
chain: KVYLSECKTGNGKNYRGTMSKTKNGITCQKWSSTSPHRPRFSPATHPSEGLEENYCRNPDNDPQGPWCYTTDPEKRYDYCDILECEEECMHCSGENYDGKISKTMSGLECQAWDSQSPHAHGYIPSKFPNKNLKKNYCRNPDRELRPWCFTTDPNKRWELCDIPRCTTPPPSSGPTYQCLKGTGENYRGNVAVTVSGHTCQHWSAQTPHTHNRTPENFPCKNLDENYCRNPDGKRAPWCHTTNSQVRWEYCKIPSCDSSPVSTEQLAPTAPPELTPVVQDCYHGDGQSYRGTSSTTTTGKKCQSWSSMTPHRHQKTPENYPNAGLTMNYCRNPDADKGPWCFTTDPSVRWEYCNLKKCSGTEASVVAPPPVVLLPDVETPSEEDCMFGNGKGYRGKRATTVTGTPCQDWAAQEPHRHSIFTPETNPRAGLEKNYCRNPDGDVGGPWCYTTNPRKLYDYCDVPQCAAPSFDCGKPQVEPKKCPGRVVGGCVAHPHSWPWQVSLRTRFGMHFCGGTLISPEWVLTAAHCLEKSPRPSSYKVILGAHQEVNLEPHVQEIEVSRLFLEPTRKDIALLKLSSPAVITDKVIPACLPSPNYVVADRTECFITGWGETQGTFGAGLLKEAQLPVIENKVCNRYEFLNGRVQSTELCAGHLAGGTDSCQGDSGGPLVCFEKDKYILQGVTSWGLGCARPNKPGVYVRVSRFVTWIEGVMRNN
On to B2, for which the “binding to Aβ in the presence of εACA” value with Aβ is “completely abolished”. Besides, the “effect on Aβ-induced cell detachment” value in assay [1] is “unable to ameliorate”.
